From patent US20180319872A1

Tests used:
[1] = target: Clostridium difficile toxin B (TcdB) (Clostridium difficile) (UniProt P18177); test: ELISA on plates coated with 1 ug/ml TcdB (TxB), OD450
[2] = target: Clostridium difficile toxin A (TcdA) (Clostridium difficile) (UniProt P16154); test: cell-based or functional assay
[3] = target: Clostridium difficile toxin A (TcdA) (Clostridium difficile) (UniProt P16154); test: ELISA on plates coated with 1 ug/ml TcdA (TxA), OD450

Sequence of Clostridium difficile toxin A (TcdA) (Clostridium difficile) (P16154 whole entry): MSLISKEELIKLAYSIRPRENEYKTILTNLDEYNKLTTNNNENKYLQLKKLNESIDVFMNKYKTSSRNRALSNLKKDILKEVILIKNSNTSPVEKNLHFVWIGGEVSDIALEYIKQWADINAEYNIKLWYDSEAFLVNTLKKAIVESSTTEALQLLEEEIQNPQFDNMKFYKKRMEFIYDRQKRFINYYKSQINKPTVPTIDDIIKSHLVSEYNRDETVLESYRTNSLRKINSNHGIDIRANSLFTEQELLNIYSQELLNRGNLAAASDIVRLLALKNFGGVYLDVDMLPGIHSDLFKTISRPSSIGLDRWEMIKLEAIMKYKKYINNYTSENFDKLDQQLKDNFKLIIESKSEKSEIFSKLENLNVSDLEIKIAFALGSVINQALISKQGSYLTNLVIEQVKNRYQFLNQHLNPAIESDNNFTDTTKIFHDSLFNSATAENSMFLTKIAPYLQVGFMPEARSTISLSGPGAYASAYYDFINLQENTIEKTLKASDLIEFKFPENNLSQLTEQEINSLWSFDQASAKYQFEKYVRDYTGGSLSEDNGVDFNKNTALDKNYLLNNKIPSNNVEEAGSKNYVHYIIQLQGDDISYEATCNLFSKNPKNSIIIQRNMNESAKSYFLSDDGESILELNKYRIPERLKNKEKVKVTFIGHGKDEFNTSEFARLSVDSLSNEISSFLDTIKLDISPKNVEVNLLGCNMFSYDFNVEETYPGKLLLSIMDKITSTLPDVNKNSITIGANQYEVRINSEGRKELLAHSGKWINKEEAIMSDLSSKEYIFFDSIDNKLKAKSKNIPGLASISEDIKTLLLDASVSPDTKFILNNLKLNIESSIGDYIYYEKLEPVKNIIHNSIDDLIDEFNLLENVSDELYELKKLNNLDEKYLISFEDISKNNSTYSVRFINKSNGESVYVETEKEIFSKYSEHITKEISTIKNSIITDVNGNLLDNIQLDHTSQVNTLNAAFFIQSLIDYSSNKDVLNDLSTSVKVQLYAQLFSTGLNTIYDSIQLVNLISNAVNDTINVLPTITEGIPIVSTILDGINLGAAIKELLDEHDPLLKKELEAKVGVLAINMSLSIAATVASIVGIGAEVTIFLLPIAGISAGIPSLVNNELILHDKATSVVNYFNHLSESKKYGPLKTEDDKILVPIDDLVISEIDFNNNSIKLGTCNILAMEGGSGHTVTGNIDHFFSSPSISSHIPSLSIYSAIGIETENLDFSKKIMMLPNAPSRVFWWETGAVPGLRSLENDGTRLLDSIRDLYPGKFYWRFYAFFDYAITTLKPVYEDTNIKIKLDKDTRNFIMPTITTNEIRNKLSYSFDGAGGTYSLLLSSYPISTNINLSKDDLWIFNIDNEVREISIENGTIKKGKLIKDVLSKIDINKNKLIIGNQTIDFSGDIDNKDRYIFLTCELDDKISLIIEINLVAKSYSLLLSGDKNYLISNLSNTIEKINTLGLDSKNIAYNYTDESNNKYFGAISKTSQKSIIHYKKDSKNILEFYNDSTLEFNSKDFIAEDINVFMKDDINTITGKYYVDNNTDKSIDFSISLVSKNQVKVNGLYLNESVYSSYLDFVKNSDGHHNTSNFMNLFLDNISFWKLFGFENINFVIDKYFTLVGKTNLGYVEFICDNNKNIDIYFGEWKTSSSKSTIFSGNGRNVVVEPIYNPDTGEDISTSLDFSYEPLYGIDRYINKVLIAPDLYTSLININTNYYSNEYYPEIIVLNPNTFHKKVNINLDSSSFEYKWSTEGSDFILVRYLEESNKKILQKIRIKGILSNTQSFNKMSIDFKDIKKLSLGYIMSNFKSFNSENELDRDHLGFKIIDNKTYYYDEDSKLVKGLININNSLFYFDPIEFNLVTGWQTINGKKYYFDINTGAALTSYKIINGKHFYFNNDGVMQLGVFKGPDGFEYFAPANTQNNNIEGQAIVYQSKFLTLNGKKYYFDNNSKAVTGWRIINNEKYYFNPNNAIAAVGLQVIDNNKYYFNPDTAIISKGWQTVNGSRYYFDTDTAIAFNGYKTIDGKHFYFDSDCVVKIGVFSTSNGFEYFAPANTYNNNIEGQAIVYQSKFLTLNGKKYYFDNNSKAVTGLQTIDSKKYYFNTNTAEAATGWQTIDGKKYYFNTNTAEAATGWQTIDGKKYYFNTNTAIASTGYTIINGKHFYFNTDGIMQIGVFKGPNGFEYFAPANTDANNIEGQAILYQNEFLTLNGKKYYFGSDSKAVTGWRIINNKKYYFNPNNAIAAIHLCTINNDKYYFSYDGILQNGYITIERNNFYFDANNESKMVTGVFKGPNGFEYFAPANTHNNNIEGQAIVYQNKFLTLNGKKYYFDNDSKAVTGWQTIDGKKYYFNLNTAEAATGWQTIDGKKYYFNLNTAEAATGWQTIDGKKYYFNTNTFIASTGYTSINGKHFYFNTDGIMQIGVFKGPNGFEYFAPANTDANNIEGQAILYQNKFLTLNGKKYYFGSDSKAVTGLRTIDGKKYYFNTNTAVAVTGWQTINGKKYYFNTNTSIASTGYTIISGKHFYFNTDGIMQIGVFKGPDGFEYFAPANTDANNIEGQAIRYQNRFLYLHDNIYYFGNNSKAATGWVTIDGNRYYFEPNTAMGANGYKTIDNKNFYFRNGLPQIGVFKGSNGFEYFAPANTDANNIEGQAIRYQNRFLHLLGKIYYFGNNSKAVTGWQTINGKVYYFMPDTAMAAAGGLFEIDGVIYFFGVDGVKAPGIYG
Sequence of Clostridium difficile toxin B (TcdB) (Clostridium difficile) (P18177 2-2366 limits assumed): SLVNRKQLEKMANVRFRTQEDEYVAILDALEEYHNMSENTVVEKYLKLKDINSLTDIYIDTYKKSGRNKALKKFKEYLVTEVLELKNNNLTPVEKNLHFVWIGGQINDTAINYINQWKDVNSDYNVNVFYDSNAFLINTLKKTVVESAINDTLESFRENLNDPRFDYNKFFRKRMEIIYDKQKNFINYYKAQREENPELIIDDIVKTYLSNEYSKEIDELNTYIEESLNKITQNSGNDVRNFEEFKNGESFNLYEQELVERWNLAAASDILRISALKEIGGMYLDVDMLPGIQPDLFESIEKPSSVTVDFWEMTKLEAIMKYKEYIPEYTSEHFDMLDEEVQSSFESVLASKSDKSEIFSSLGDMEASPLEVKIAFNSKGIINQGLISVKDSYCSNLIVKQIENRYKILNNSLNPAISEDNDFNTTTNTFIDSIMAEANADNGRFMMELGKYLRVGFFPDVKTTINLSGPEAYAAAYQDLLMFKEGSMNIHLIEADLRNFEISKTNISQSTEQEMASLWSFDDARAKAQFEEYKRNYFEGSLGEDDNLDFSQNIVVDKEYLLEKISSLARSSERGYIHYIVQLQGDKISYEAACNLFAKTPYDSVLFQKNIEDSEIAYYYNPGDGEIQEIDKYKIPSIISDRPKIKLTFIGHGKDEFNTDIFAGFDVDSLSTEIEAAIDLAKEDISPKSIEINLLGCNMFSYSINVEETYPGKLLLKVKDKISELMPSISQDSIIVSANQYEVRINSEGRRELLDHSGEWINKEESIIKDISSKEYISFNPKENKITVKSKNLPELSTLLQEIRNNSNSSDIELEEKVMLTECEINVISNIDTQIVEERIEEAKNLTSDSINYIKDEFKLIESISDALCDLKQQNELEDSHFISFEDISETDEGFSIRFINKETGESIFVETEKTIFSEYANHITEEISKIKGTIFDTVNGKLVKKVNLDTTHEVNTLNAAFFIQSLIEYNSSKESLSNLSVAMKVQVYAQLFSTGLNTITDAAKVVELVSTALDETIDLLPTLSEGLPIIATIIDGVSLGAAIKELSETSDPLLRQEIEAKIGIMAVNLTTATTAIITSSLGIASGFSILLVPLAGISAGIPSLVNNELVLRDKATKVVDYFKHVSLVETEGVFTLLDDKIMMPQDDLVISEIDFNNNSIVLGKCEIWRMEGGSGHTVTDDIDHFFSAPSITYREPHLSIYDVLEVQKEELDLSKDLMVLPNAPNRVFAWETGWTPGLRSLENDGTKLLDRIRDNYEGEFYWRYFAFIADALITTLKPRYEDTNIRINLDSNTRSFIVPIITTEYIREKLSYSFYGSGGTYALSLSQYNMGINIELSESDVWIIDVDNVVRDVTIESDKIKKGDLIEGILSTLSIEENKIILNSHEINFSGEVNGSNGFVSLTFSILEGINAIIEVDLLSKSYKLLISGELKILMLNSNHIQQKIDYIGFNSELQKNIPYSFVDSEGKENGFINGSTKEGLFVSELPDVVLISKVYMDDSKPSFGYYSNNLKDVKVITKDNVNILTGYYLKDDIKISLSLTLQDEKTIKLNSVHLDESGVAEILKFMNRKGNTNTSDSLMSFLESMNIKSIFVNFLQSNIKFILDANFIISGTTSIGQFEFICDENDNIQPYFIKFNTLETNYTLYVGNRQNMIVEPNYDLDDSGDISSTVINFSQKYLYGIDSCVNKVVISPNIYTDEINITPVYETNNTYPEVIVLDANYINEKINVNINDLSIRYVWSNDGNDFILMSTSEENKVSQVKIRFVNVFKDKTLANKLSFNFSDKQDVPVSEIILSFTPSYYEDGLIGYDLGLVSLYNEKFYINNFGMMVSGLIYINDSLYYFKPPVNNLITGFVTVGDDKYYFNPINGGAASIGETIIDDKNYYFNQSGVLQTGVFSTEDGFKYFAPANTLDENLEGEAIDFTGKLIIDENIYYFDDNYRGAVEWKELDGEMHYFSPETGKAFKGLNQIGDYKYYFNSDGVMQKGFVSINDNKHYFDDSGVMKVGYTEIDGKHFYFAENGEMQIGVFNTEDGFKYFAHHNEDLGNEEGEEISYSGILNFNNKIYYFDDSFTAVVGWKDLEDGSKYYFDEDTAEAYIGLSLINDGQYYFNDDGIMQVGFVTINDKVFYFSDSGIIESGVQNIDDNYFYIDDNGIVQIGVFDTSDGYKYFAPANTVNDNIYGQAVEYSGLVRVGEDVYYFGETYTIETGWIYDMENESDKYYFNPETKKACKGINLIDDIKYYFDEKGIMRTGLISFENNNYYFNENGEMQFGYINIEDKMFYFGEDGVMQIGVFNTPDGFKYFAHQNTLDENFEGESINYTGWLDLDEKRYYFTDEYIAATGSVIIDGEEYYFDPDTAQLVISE

| Substance | EC50 (read off the curve) [1] | minimal dose protecting Vero cells from TcdA-induced cell rounding (5 ng/ml TcdA) [2] | EC50 (read off the curve) [3] |
| --- | --- | --- | --- |
| Merc Ab (antibody) | 10 ng/mL | – | – |
| Merck anti-TcdA human monoclonal antibody (actoxumab) | – | > 10 nM | 2 ng/mL |
